From IntAct's records for PubMed 16286470

B1: Dual specificity protein phosphatase 1 (Homo sapiens), P28562 (parent)
chain: MVMEVGTLDAGGLRALLGERAAQCLLLDCRSFFAFNAGHIAGSVNVRFSTIVRRRAKGAMGLEHIVPNAELRGRLLAGAYHAVVLLDERSAALDGAKRDGTLALAAGALCREARAAQVFFLKGGYEAFSASCPELCSKQSTPMGLSLPLSTSVPDSAESGCSSCSTPLYDQGGPVEILPFLYLGSAYHASRKDMLDALGITALINVSANCPNHFEGHYQYKSIPVEDNHKADISSWFNEAIDFIDSIKNAGGRVFVHCQAGISRSATICLAYLMRTNRVKLDEAFEFVKQRRSIISPNFSFMGQLLQFESQVLAPHCSAEAGSPAMAVLDRGTSTTTVFNFPVSIPVHSTNSALSYLQSPITTSPSC

Variants of: B1
Details: with ubb_human UBB

Variant | effect of a mutation on the interaction
MVMEVGTLDAGGLRALLGERAAQCLLLDCRSFFAFNAGHIAGSVNVRFSTIVRRRAKGAMGLEHIVPNAELRGRLLAGAYHAVVLLDERSAALDGAKRDGTLALAAGALCREARAAQVFFLKGGYEAFSASCPELCSKQSTPMGLSLPLSTSVPDSAESGCSSCSTPLYDQGGPVEILPFLYLGSAYHASRKDMLDALGITALINVSANCPNHFEGHYQYKSIPVEDNHKADISSWFNEAIDFIDSIKNAGGRVFVHCQAGISRSATICLAYLMRTNRVKLDEAFEFVKQRRSIIAPNFSFMGQLLQFESQVLAPHCSAEAGSPAMAVLDRGTSTTTVFNFPVSIPVHSTNSALSYLQSPITTSPSC [S296A] | decreasing interaction
MVMEVGTLDAGGLRALLGERAAQCLLLDCRSFFAFNAGHIAGSVNVRFSTIVRRRAKGAMGLEHIVPNAELRGRLLAGAYHAVVLLDERSAALDGAKRDGTLALAAGALCREARAAQVFFLKGGYEAFSASCPELCSKQSTPMGLSLPLSTSVPDSAESGCSSCSTPLYDQGGPVEILPFLYLGSAYHASRKDMLDALGITALINVSANCPNHFEGHYQYKSIPVEDNHKADISSWFNEAIDFIDSIKNAGGRVFVHCQAGISRSATICLAYLMRTNRVKLDEAFEFVKQRRSIISPNFSFMGQLLQFESQVLAPHCSAEAGAPAMAVLDRGTSTTTVFNFPVSIPVHSTNSALSYLQSPITTSPSC [S323A] | decreasing interaction
MVMEVGTLDAGGLRALLGERAAQCLLLDCRSFFAFNAGHIAGSVNVRFSTIVRRRAKGAMGLEHIVPNAELRGRLLAGAYHAVVLLDERSAALDGAKRDGTLALAAGALCREARAAQVFFLKGGYEAFSASCPELCSKQSTPMGLSLPLSTSVPDSAESGCSSCSTPLYDQGGPVEILPFLYLGSAYHASRKDMLDALGITALINVSANCPNHFEGHYQYKSIPVEDNHKADISSWFNEAIDFIDSIKNAGGRVFVHCQAGISRSATICLAYLMRTNRVKLDEAFEFVKQRRSIISPNFSFMGQLLQFESQVLAPHCSAEAGSPAMAVLDRGTSTTTVANAPVSIPVHSTNSALSYLQSPITTSPSC [F339A;F341A] | decreasing interaction

Variants of: B1
Details: with skp2_human SKP2, Q13309
Chain of skp2_human SKP2, Q13309 (Q13309 whole entry): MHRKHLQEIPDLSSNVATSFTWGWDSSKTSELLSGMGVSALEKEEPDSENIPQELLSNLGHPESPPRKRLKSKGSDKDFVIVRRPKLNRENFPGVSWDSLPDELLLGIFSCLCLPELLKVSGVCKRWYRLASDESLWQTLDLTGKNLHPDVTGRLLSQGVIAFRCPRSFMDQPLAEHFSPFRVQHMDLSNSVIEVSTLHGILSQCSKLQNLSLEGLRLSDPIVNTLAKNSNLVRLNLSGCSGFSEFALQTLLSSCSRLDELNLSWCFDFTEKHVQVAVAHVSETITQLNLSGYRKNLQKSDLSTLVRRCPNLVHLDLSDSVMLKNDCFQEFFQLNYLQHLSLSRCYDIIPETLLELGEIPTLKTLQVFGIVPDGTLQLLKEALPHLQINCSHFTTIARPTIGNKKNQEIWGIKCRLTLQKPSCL

Variant | effect of a mutation on the interaction
MVMEVGTLDAGGLRALLGERAAQCLLLDCRSFFAFNAGHIAGSVNVRFSTIVRRRAKGAMGLEHIVPNAELRGRLLAGAYHAVVLLDERSAALDGAKRDGTLALAAGALCREARAAQVFFLKGGYEAFSASCPELCSKQSTPMGLSLPLSTSVPDSAESGCSSCSTPLYDQGGPVEILPFLYLGSAYHASRKDMLDALGITALINVSANCPNHFEGHYQYKSIPVEDNHKADISSWFNEAIDFIDSIKNAGGRVFVHCQAGISRSATICLAYLMRTNRVKLDEAFEFVKQRRSIIAPNFSFMGQLLQFESQVLAPHCSAEAGSPAMAVLDRGTSTTTVFNFPVSIPVHSTNSALSYLQSPITTSPSC [S296A] | decreasing interaction
